This is an account of results in article PMC5052618, “Activation of Xer-recombination at dif: structural basis of the FtsKγ–XerD interaction” (Scientific Reports, 2016).

The target in this assay is T1, C-terminal domain of XerD (XerDC), as part of the XerDC-FtsKγ fusion protein (E. coli, UniProt P0A8P8 111-298).
T1 construct: XerD tyrosine recombinase, E. coli, residues 111 to 298 (C-terminal, catalytic domain); also called XerD C-terminal domain; XerD portion of XerDC–γ; source: overproduced from pBad24, purified (Ni2+ resin, HiTrap heparin HP, HiTrap Q HP)
T1 sequence (looked up): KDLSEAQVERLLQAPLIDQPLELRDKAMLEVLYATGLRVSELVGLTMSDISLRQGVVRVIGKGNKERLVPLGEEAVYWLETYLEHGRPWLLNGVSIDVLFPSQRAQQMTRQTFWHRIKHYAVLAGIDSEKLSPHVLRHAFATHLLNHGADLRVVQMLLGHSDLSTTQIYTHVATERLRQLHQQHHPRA
Kind of assay: crystal structure; XerDC (XerD 111-298) and FtsKγ (FtsK 1261-1329) joined on one chain by a 16 amino acid linker; hanging drop, 100 mM Bicine (pH9), 10% (w/v) polyethylene glycol 8000; molecular replacement, 2.3 Å. The settings on record: both partners purified.

B1: FtsKγ domain, as part of the XerDC-FtsKγ fusion protein (domain or fragment, E. coli, UniProt P46889 1261-1329, looked up)
chain: GAEELDPLFDQAVQFVTEKRKASISGVQRQFRIGYNRAARIIEQMEAQGIVSEQGHNGNREVLAPPPFD
notes: FtsK DNA translocase, E. coli, residues 1261 to 1329 (γ domain, very C-terminus); In the functional rows with m4 it is the γ portion of the full length XerD-FtsKγ fusion, from which the crystallised fusion was amplified; also called γ domain of FtsK; source: overproduced from pBad24, purified (Ni2+ resin, HiTrap heparin HP, HiTrap Q HP)
With B1, the binding result is recorded as “binds”.
